Values of other authors as cited in PMC8174820.

Test system: Tyr134
Assay: chemical modification

## Cellular retinoic acid binding protein 2 (CRABP2) (Homo sapiens (inferred; the review discusses the human proteome but does not name the species for CRABP2))
  pKa: ∼7.6
